Experimental data taken from patent publication US20070099199A1 (published 2007).
Where “and” joins values, the source holds several entries; their conditions need not be identical. Identical values can stand only once.

B1: TIP-TIP-IgG fusion protein (two copies of the TIP-1 PDZ domain fused to the hIgG constant region) (Fc fusion)
chain: QRVEIHKLRQGENLILGFSIGGGIDQDPSQNPFSEDKTDKGIYVTRVSEGGPAEIAGLQIGDKIMQVNGWDMTMVTHDQARKRLTKRSEEVVRLLVTRQSLQKQRVEIHKLRQGENLILGFSIGGGIDQDPSQNPFSEDKTDKGIYVTRVSEGGPAEIAGLQIGDKIMQVNGWDMTMVTHDQARKRLTKRSEEVVRLLVTRQSLQK
notes: domain: PDZ domain; not shown: hIgG constant region of the CD5gamma or PEAK10 vector

These molecules were tested against HPV16 E6 C-terminal PDZ ligand (PL) peptide, biotinylated (human papillomavirus type 16) (UniProt P03126) (assay: Matrix/G assay ELISA; E6 peptide titrated on GST-PDZ).

Molecule | EC50 [nM]
GST-Magi3 PDZ domain 1 (from UniProt Q5TCQ9 18-106) | 310
GST-SAST2 PDZ domain 1 | 1200

These molecules were tested against HPV16 E6 C-terminal PDZ ligand (PL) peptide, biotinylated (human papillomavirus type 16) (UniProt P03126) (assay: G assay ELISA; immobilised GST-PDZ, biotin-peptide 10 uM).

Molecule | Ave OD | OD S/N (ratio vs GST only)
GST-NSP PDZ domain 1, clone #42.5 | 0.416 A450 nm | 1.95
GST-EZRIN Binding Protein 50 PDZ domain 1, clone #341.1 | 0.43 A450 nm | 1.65
GST-MAGI1 PDZ domain 5 | 0.432 A450 nm | 1.77
GST-DLG-6 PDZ domain 1, clone #333.1 | 0.349 A450 nm | 2.04
GST-PAR3 PDZ domain 3, clone #278.1 | 0.352 A450 nm | 1.8
GST-Magi2 PDZ domain 3 (from UniProt Q86UL8 774-865) | 0.416 A450 nm and 0.359 A450 nm | 1.98 and 1.65
GST-Densin 180 PDZ domain 1 | 0.42 A450 nm and 0.35 A450 nm | 1.96 and 1.82
GST-AF6 PDZ domain 1 | 0.444 A450 nm | 1.8

Each molecule was assayed against HPV16 E6 C-terminal PDZ ligand (PL) peptide, biotinylated (human papillomavirus type 16) (UniProt P03126) (assay: G assay ELISA; E6 PL peptide titrated on constant GST-PDZ).

Molecule | EC50 [nM]
GST-Magi3 PDZ domain 1 (from UniProt Q5TCQ9 18-106) | 310
GST-SAST2 PDZ domain 1 | 1200

The molecules below were run against HPV E6 #16 PDZ ligand peptide (C-terminal peptide of the E6 protein of HPV 16) (HPV 16) (UniProt P03126) (assay: G assay ELISA, immobilised GST-PDZ, biotin peptide 10 uM).

Molecule | Ave OD | OD S/N (ratio to GST-only well)
GST-INADL PDZ domain 3 | 0.485 A450 nm | 1.86
GST-NeDLG PDZ domain 1 | 0.516 A450 nm | 1.98
GST-NSP #268.2 PDZ domain 1 | 0.724 A450 nm | 2.58
GST-PDZK1 PDZ domain 3 | 0.5 A450 nm | 1.92
GST-TAX IP 2 PDZ domain 1 | 0.508 A450 nm and 0.478 A450 nm | 2.37 and 2.48
GST-PDZ-73 PDZ domain 2 | 0.561 A450 nm | 1.95
GST-KIAA1526 #126.1 PDZ domain 2 | 0.463 A450 nm | 1.87
GST-MAGI 1 PDZ domain 5 | 0.541 A450 nm | 3.12

What follows are molecules tested against T1, GST-HPV11E6 fusion protein (full length E6 of HPV11) (human papillomavirus 11, UniProt P04019 1-150) (assay: modified ELISA: GST-E6 coated at 5 ug/ml, TIP-TIP-IgG supernatant, anti-hIgG-HRP).
T1 construct: domain: full length protein

Molecule | binding result
B1 | no binding
